Test results: PMC11503464, “Copper-61 is an advantageous alternative to gallium-68 for PET imaging of somatostatin receptor-expressing tumors: a head-to-head comparative preclinical study” (Frontiers in Nuclear Medicine, 2024)

Assays:
in vivo [1] = conditions: female, athymic nude-Foxn1^nu/Foxn1^+, mouse, 200 pmol, total radioactivity
in vivo [2] = assay: in vivo; parameters: species or system mice; conditions: BALB/c, mouse, total radioactivity
Procedure: (§1) [^64Cu]CuCl2 was provided by the University Hospital Tübingen, Germany. […] OLINDA/EXM 1.0 was used to integrate the fitted time-activity curves and to estimate the organ and effective doses using the whole-body adult female model. For all the calculations, the assumption was made that the mouse biodistribution, determined as the %IA/organ, was the same as the human biodistribution. The dosimetry estimates were performed as previously described ([14]).

[3] = Stability of labeling solutions at room temperature by radio-HPLC; assay type: physicochemical; conditions: labeling solution stored at room temperature
Procedure: An aliquot of DOTA-TOC or NODAGA-TOC (3–6 nmol, 1 mg/ml in TraceSelect water) was diluted in 0.25–0.30 ml ammonium acetate (0.5 M, pH 8), followed by the addition of [^61Cu]CuCl2 (30–150 MBq). The reaction mixture was incubated for 15 min at 95°C (DOTA-TOC) or at room temperature (NODAGA-TOC). The pH of the reaction mixture was between 5 and 6. Quality control was performed on a Shimadzu 2020 HPLC system connected to a Berthold radio detector (Flow Star 513).

[4] = assay type: physicochemical; conditions: pH 7.4, log D(O/PBS pH 7.4)
Procedure: Briefly, the radiotracer (10 µl, 1 µM) was added to 1 ml of a 1:1 pre-saturated mixture of 1-octanol and phosphate-buffered saline (PBS pH 7.4). The solution was vortexed for 30 min and then centrifuged at 3,000 rpm to achieve phase separation. Aliquots of 0.1 ml from each phase were collected and measured in a γ-counter. The distribution coefficient was calculated as the average of the logarithmic values (n = 3) of the ratio between the radioactivity in the organic and PBS phases. [^68Ga]Ga-DOTA-TOC was used as a reference.

HEK-SST2 cells [5] = assay: Efflux from HEK-SST2 cells; assay type: cell-based, human
Procedure: The efflux was studied after 1 h incubation of the cells with the radiotracer at 37°C and the removal of the unbound fraction and the cell membrane-bound fraction, as described above (acid-wash). The cells were then incubated with fresh medium at 37°C either alone or with a competitor (1,000-fold excess of DOTA-TOC, 2.5 µM/well) for 10, 20, 30, 45, 60, 90, 120, 150, 180, and 240 min. At each time point, the efflux (or retention) was measured after the removal of the medium without or with the competitor and replacement with fresh pre-warmed (37°C) medium alone or with the competitor. At the end of the experiment, the cells were detached using 1 M NaOH at 37°C and collected to determine the remaining cell-associated radiotracer.

HEK-SST2 cells [6] = assay: Cellular uptake and distribution on intact HEK-SST2 cells; assay type: cell-based, human; conditions: specific uptake, after 4 h at 37°C
Procedure: At the defined time points, the medium was removed, and the cells were washed twice with ice-cold PBS. The cells were then treated twice for 5 min with ice-cold glycine solution (0.05 M, pH 2.8) to detach the cell membrane-bound fraction (acid released). Afterward, the cells containing the internalized fraction were detached using NaOH 1 M at 37°C and collected for measurement. [^68Ga]Ga-DOTA-TOC was evaluated as a reference.

[7] = parameters: species or system mice; conditions: mouse, in vivo
Procedure: as §1

C[C@@H](O)[C@@H]1NC(=O)[C@H](CCCCN)NC(=O)[C@@H](Cc2c[nH]c3ccccc23)NC(=O)[C@H](Cc2ccc(O)cc2)NC(=O)[C@@H](NC(=O)[C@@H](Cc2ccccc2)NC(=O)CN2CCN(CC(=O)O)CCN(CC(=O)O)CCN(CC(=O)O)CC2)CSSC[C@@H](C(=O)N[C@H](CO)[C@@H](C)O)NC1=O [[^61Cu]Cu-DOTA-TOC, metal not drawn]
tissue uptake at 1 h (in vivo [1]; Adrenal uptake): 2.05 ± 0.58 %ID/g | tissue uptake at 4 h (in vivo [1]; Adrenal uptake): 1.14 ± 0.5 %ID/g | tissue uptake at 1 h (in vivo [1]; Blood uptake): 0.38 ± 0.09 %ID/g | tissue uptake at 4 h (in vivo [1]; Blood uptake): 0.21 ± 0.04 %ID/g | tissue uptake at 1 h (in vivo [1]; Bone uptake): 0.6 ± 0.16 %ID/g | tissue uptake at 4 h (in vivo [1]; Bone uptake): 0.5 ± 0.19 %ID/g | tissue uptake at 4 h (in vivo [1]; Heart uptake): 0.49 ± 0.06 %ID/g | tissue uptake at 4 h (in vivo [1]; Intestine uptake): 2.06 ± 0.92 %ID/g | tissue uptake at 1 h (in vivo [1]; Kidneys uptake): 5.32 ± 0.58 %ID/g | tissue uptake at 4 h (in vivo [1]; Kidneys uptake): 2.33 ± 0.39 %ID/g | tissue uptake at 4 h (in vivo [1]; Liver uptake): 2.52 ± 0.56 %ID/g | tissue uptake at 1 h (in vivo [1]; Lung uptake): 1.96 ± 0.16 %ID/g | tissue uptake at 4 h (in vivo [1]; Lung uptake): 1.25 ± 0.08 %ID/g | tissue uptake at 4 h (in vivo [1]; Muscle uptake): 0.16 ± 0.08 %ID/g | tissue uptake at 1 h (in vivo [1]; Pancreas uptake): 4.29 ± 0.5 %ID/g | tissue uptake at 4 h (in vivo [1]; Pancreas uptake): 0.68 ± 0.07 %ID/g | tissue uptake at 1 h (in vivo [1]; Pituitary uptake): 3 ± 1.32 %ID/g | tissue uptake at 4 h (in vivo [1]; Pituitary uptake): 2.43 ± 1.27 %ID/g | tissue uptake at 1 h (in vivo [1]; SST2-tumor uptake): 7.44 ± 2.33 %ID/g | tissue uptake at 4 h (in vivo [1]; SST2-tumor uptake): 6.85 ± 2.48 %ID/g | tissue uptake at 1 h (in vivo [1]; Spleen uptake): 0.55 ± 0.08 %ID/g | tissue uptake at 4 h (in vivo [1]; Spleen uptake): 0.37 ± 0.09 %ID/g | tissue uptake at 1 h (in vivo [1]; Stomach uptake): 4.34 ± 0.5 %ID/g | tissue uptake at 4 h (in vivo [1]; Stomach uptake): 2.09 ± 0.5 %ID/g

C[C@@H](O)[C@@H]1NC(=O)[C@H](CCCCN)NC(=O)[C@@H](Cc2c[nH]c3ccccc23)NC(=O)[C@H](Cc2ccc(O)cc2)NC(=O)[C@@H](NC(=O)[C@@H](Cc2ccccc2)NC(=O)CCC(C(=O)O)N2CCN(CC(=O)O)CCN(CC(=O)O)CC2)CSSC[C@@H](C(=O)N[C@H](CO)[C@@H](C)O)NC1=O (some centres unmarked) [[64Cu]Cu-NODAGA-TOC, metal not drawn]
tissue uptake at 12 h (in vivo [2]; Adrenal uptake): 0.32 ± 0.2 %ID/g | tissue uptake at 24 h (in vivo [2]; Adrenal uptake): 0.18 ± 0.1 %ID/g | tissue uptake at 12 h (in vivo [2]; Femur uptake): 0.11 ± 0.04 %ID/g | tissue uptake at 12 h (in vivo [2]; Intestine uptake): 0.57 ± 0.07 %ID/g | tissue uptake at 24 h (in vivo [2]; Intestine uptake): 0.31 ± 0.05 %ID/g | tissue uptake at 12 h (in vivo [2]; Kidneys uptake): 2.46 ± 0.85 %ID/g | tissue uptake at 24 h (in vivo [2]; Kidneys uptake): 0.66 ± 0.15 %ID/g | tissue uptake at 12 h (in vivo [2]; Liver uptake): 0.37 ± 0.09 %ID/g | tissue uptake at 24 h (in vivo [2]; Liver uptake): 0.26 ± 0.02 %ID/g | tissue uptake at 12 h (in vivo [2]; Lung uptake): 0.51 ± 0.12 %ID/g | tissue uptake at 24 h (in vivo [2]; Lung uptake): 0.27 ± 0.09 %ID/g | tissue uptake at 12 h (in vivo [2]; Pancreas uptake): 0.14 ± 0.03 %ID/g | tissue uptake at 12 h (in vivo [2]; Pituitary uptake): 0.48 ± 0.25 %ID/g | tissue uptake at 24 h (in vivo [2]; Pituitary uptake): 0.43 ± 0.29 %ID/g | tissue uptake at 12 h (in vivo [2]; Stomach uptake): 0.75 ± 0.19 %ID/g | tissue uptake at 24 h (in vivo [2]; Stomach uptake): 0.26 ± 0.04 %ID/g

C[C@@H](O)[C@@H]1NC(=O)[C@H](CCCCN)NC(=O)[C@@H](Cc2c[nH]c3ccccc23)NC(=O)[C@H](Cc2ccc(O)cc2)NC(=O)[C@@H](NC(=O)[C@@H](Cc2ccccc2)NC(=O)CCC(C(=O)O)N2CCN(CC(=O)O)CCN(CC(=O)O)CC2)CSSC[C@@H](C(=O)N[C@H](CO)[C@@H](C)O)NC1=O (some centres unmarked) [[^61Cu]Cu-NODAGA-TOC, metal not drawn]
tissue uptake at 1 h (in vivo [1]; Adrenal uptake): 0.99 ± 0.17 %ID/g | tissue uptake at 4 h (in vivo [1]; Adrenal uptake): 0.67 ± 0.26 %ID/g | tissue uptake at 1 h (in vivo [1]; Blood uptake): 0.22 ± 0.04 %ID/g | tissue uptake at 4 h (in vivo [1]; Blood uptake): 0.04 ± 0.02 %ID/g | tissue uptake at 1 h (in vivo [1]; Bone uptake): 0.46 ± 0.17 %ID/g | tissue uptake at 4 h (in vivo [1]; Bone uptake): 0.31 ± 0.11 %ID/g | tissue uptake at 1 h (in vivo [1]; Heart uptake): 0.16 ± 0.04 %ID/g | tissue uptake at 4 h (in vivo [1]; Heart uptake): 0.07 ± 0.03 %ID/g | tissue uptake at 1 h (in vivo [1]; Intestine uptake): 0.92 ± 0.12 %ID/g | tissue uptake at 4 h (in vivo [1]; Intestine uptake): 0.65 ± 0.23 %ID/g | tissue uptake at 1 h (in vivo [1]; Kidneys uptake): 12.5 ± 2.25 %ID/g | tissue uptake at 4 h (in vivo [1]; Kidneys uptake): 4.36 ± 0.92 %ID/g | tissue uptake at 1 h (in vivo [1]; Liver uptake): 0.29 ± 0.04 %ID/g | tissue uptake at 4 h (in vivo [1]; Liver uptake): 0.27 ± 0.09 %ID/g | tissue uptake at 1 h (in vivo [1]; Lung uptake): 1.09 ± 0.2 %ID/g | tissue uptake at 4 h (in vivo [1]; Lung uptake): 0.51 ± 0.24 %ID/g | tissue uptake at 1 h (in vivo [1]; Muscle uptake): 0.16 ± 0.06 %ID/g | tissue uptake at 4 h (in vivo [1]; Muscle uptake): 0.07 ± 0.04 %ID/g | tissue uptake at 1 h (in vivo [1]; Pancreas uptake): 2.59 ± 0.49 %ID/g | tissue uptake at 4 h (in vivo [1]; Pancreas uptake): 0.6 ± 0.21 %ID/g | tissue uptake at 1 h (in vivo [1]; Pituitary uptake): 3.8 ± 1.35 %ID/g | tissue uptake at 4 h (in vivo [1]; Pituitary uptake): 2.97 ± 0.95 %ID/g | tissue uptake at 1 h (in vivo [1]; SST2-tumor uptake): 8.88 ± 3.19 %ID/g | tissue uptake at 4 h (in vivo [1]; SST2-tumor uptake): 7.39 ± 1.36 %ID/g | tissue uptake at 1 h (in vivo [1]; Spleen uptake): 0.22 ± 0.05 %ID/g | tissue uptake at 4 h (in vivo [1]; Spleen uptake): 0.1 ± 0.04 %ID/g | tissue uptake at 1 h (in vivo [1]; Stomach uptake): 2.34 ± 0.43 %ID/g | tissue uptake at 4 h (in vivo [1]; Stomach uptake): 1.22 ± 0.25 %ID/g | Radiochemical purity (%) 2 h ([3]; 2 h after end of synthesis): 98 ± 1% | Radiochemical purity (%) 4 h ([3]; 4 h after end of synthesis): 97 ± 1% | logD [4]: -2.6 ± 0.24 | Efflux plateau in the absence of a competitor (HEK-SST2 cells [5]; after 2 h, 37°C, no further increase at 4 h): approximately 40% | Efflux with competitor (HEK-SST2 cells [5]; after 4 h at 37°C, DOTA-TOC (competitor) added to the medium): 80% | Cellular uptake (surface bound + internalized) (HEK-SST2 cells [6]): 70.9 ± 3.5% | Total absorbed dose, Adrenals [7]: 6.77 × 10^−3 mGy/MBq | Total absorbed dose, Brain [7]: 1.53 × 10^−5 mGy/MBq | Total absorbed dose, Breasts [7]: 2.14 × 10^−4 mGy/MBq | Total absorbed dose, Gallbladder wall [7]: 2.14 × 10^−3 mGy/MBq | Total absorbed dose, Heart wall [7]: 1.02 × 10^−3 mGy/MBq | Total absorbed dose, Kidneys [7]: 9.65 × 10^−2 mGy/MBq | Total absorbed dose, LLI wall [7]: 8.28 × 10^−4 mGy/MBq | Total absorbed dose, Liver [7]: 4.06 × 10^−3 mGy/MBq | Total absorbed dose, Lungs [7]: 1.67 × 10^−3 mGy/MBq | Total absorbed dose, Muscle [7]: 5.63 × 10^−4 mGy/MBq | Total absorbed dose, Osteogenic cells [7]: 6.57 × 10^−4 mGy/MBq | Total absorbed dose, Ovaries [7]: 1.19 × 10^−3 mGy/MBq | Total absorbed dose, Pancreas [7]: 2.23 × 10^−2 mGy/MBq | Total absorbed dose, Red marrow [7]: 1.07 × 10^−3 mGy/MBq | Total absorbed dose, Skin [7]: 2.42 × 10^−4 mGy/MBq | Total absorbed dose, Small intestine [7]: 1.12 × 10^−2 mGy/MBq | Total absorbed dose, Spleen [7]: 3.49 × 10^−3 mGy/MBq | Total absorbed dose, Stomach wall [7]: 5.34 × 10^−3 mGy/MBq | Total absorbed dose, Thymus [7]: 1.98 × 10^−4 mGy/MBq | Total absorbed dose, Thyroid [7]: 5.27 × 10^−5 mGy/MBq | Total absorbed dose, Total body [7]: 1.27 × 10^−3 mGy/MBq | Total absorbed dose, ULI wall [7]: 2.14 × 10^−3 mGy/MBq | Total absorbed dose, Urinary bladder wall [7]: 3.48 × 10^−4 mGy/MBq | Total absorbed dose, Uterus [7]: 1.03 × 10^−3 mGy/MBq
